# Test results reported in patent US20070015228A1.
# B1: anti-idiotypic antibody 8A3 (antibody, V domains shown)
# VH: QVQLQQSGAELAKPGASVKMSCKASGYNFTTYWMHWVKQRPGQGLEWIGYINPSTDYTEYNQKFKYKATLTADKSSSTAYIQLSSLTSEDSAVYYCARWWDYDWYFDVWGAGTPLTVSS
# VL: DIVMTQSQEFMSTSVGDRVSVTCKASQTVDTNVAWYQQKLGQSPKPLIYSASYRCSGVPDRFTGSGSRTDFTLTITNVQSEDLAEYFCQQYHSFPWTFGGGTKVEIKR
# Molecular target: normal human IgG (Zymed) (human)
# Assay: ELISA, 8A3 coated on plate, anti-human IgG Fc-HRP detection
binder,measurement,value
B1,fold (binding to normal human IgG against humanized anti-CD20 IgG),< 50000 fold
